Key:
[1] = biological target: T1, soluble HLA-DRB1*03:01 human MHC II protein (human); test: soluble-phase competition vs biotin-labelled control peptide, Eu3+-streptavidin time-resolved fluorescence
T1 construct: Soluble protein purchased from the Benaroya Research Institute; also called HLA-DR3; DR3

[2] = biological target: T2, soluble HLA-DRB1*04:01 human MHC II protein (human); test: as above
T2 construct: Soluble protein purchased from the Benaroya Research Institute; also called HLA-DR4; DR4

Row | binding result [1] | binding result [2] | Binder
1 | binds | binds | HCHGCVRYFLRVPCWKI (P1 with the linker GG replaced by VRY) [P6 peptide HCHGCVRYFLRVPCWKI]
2 | binds | binds | HCPYCGGFLRVPCWKI (P1 with the motif HCHGC replaced by HCPYC) [P7 peptide HCPYCGGFLRVPCWKI]
3 | binds | binds | HCHGCGGFLRVPCWKI (Synthetic; disclosed in WO2017182528; also called control P1 peptide; prior art peptide P1) [P1 peptide HCHGCGGFLRVPCWKI]
4 | binds | binds | KHCPYCGGFLRVPSWKITLFKK (P4 with the linker VRY replaced by GG) [P11 peptide KHCPYCGGFLRVPSWKITLFKK]
5 | binds | binds | KCRCVRYFLRVPSWKITLFKK (P4 with the motif KHCPYC replaced by KCRC) [P9 peptide KCRCVRYFLRVPSWKITLFKK]
6 | binds | binds | KHCPYCVRYFLRVPSWKITLFKK (Synthetic) [P4 peptide KHCPYCVRYFLRVPSWKITLFKK]
7 | binds | binds | KHCHGCVRYFLRVPSWKITLFKK (P4 with the motif KHCPYC replaced by KHCHGC) [P8 peptide KHCHGCVRYFLRVPSWKITLFKK]
8 | binds | binds | KCRPYCVRYFLRVPSWKITLFKK (P4 with the motif KHCPYC replaced by KCRPYC) [P10 peptide KCRPYCVRYFLRVPSWKITLFKK]
9 | binds | binds | KHCPYCVRYFLRVPCWKITLFKK (Synthetic) [P5 peptide KHCPYCVRYFLRVPCWKITLFKK]

Reference: patent US20230340061A1, “PEPTIDES AND METHODS FOR THE TREATMENT OF MULTIPLE SCLEROSIS” (IMCYSE SA, priority 2020, published 2023)
